How the values were obtained:
[1] = tested on: GST-fused ADRB1 C-tail; experiment: GST-pull down, ADRB1 C-tail; assay type: binding; details: percent of full-length GASP-1 interaction; three independent experiments
Summary of the method: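 Phosphorimager quantification of [35S]-labelled GASP retained on GST-fused receptor C-tails after SDS-PAGE. Binding: glutathione-bead-bound fusions plus in vitro translated GASP, 1 h at 4°C, pH 7.4 Tris/NaCl/EDTA/DTT buffer with 1% Triton X-100. Means of at least three independent experiments.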

[2] = tested on: GST-fused M1 C-tail; experiment: GST-pull down, M1 C-tail; assay type: binding; details: percent of full-length GASP-1 interaction; three independent experiments
Summary of the method: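 In vitro translated, [35S]-methionine-labelled GASP proteins were tested for retention by immobilized GST-tagged receptor C-terminal tails over 1 h at 4°C. Retained radioactivity after washing and SDS-PAGE gave the quantified binding, averaged over at least three independent experiments.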

[3] = tested on: GST-fused ADRB2 C-tail; experiment: GST-pull down, ADRB2 C-tail; assay type: binding; details: central domain compared to full-length GASP-1
Method: cDNAs encoding the cytoplasmic C-tail of 14 GPCRs and 2 one-transmembrane receptors were cloned into the pGEX-2T prokaryotic expression vector downstream the GST sequence. […]
GST-fusion proteins were immobilized on glutathione-coupled Sepharose beads (GE Healthcare) for 1 h at 4°C and incubated with [^35S]-labelled in vitro translated GASP proteins or their truncated or mutated forms in ice-cold binding buffer containing: 20 mM Tris-HCl pH 7.4, 150 mM NaCl, 1 mM EDTA, 1 mM DTT, 10% glycerol and 1% Triton X-100. […] The supernatants were then analyzed by SDS-PAGE, the gels were stained with Coomassie blue to visualize GST-fusion proteins, dried and analyzed using a Phosphor-imager (Personal Molecular Imager FX, Biorad) to visualize [^35S]-labelled GASPs. Quantification was performed with the Quantity One software (Biorad). GST-pull down quantification data were analyzed using GraphPad Prism 4.03 (GraphPad Software). Quantifications presented are means of at least three independent experiments.

[4] = tested on: GFP-tagged ADRB2 in HEK293 cells; experiment: Co-immunoprecipitation, ADRB2; assay type: cell-based; details: 48 h expression, anti-GFP immunoprecipitation
Method: HEK293 cells stably expressing N-terminal GFP-tagged ADRB1, ADRB2, CALCR and M1 or MyrPalm-mYFP were transfected with pcDNA3.1 containing the sequence for a central domain of GASP-1 (AA 380 to 1073) using JetPEI reagent (polyplus transfection) according to the instructions from the manufacturer. After 48 h of expression, cells were washed twice with PBS and lysed in a buffer containing 10 mM Tris-HCl, pH 7.4, 150 mM NaCl, 25 mM KCl, 0.3% Triton X-100 and cOmplete protease inhibitors (Roche) for 1 h at 4°C under agitation. 500 µg of cleared lysates were incubated with 1 µg of a mouse monoclonal anti-GFP antibody (Invitrogen) overnight at 4°C, followed by an incubation with 40 µl of protein A-Sepharose beads for an additional 2 h at 4°C. Beads were then washed five times in lysis buffer and precipitates were resolved on an 8% gel by SDS–PAGE and electrotransferred to immobilon-P membranes (Millipore) in 50 mM Tris-boric acid for 1 h at 300 mA. Membranes were blocked with 5% non-fat powder milk in TBS-Tween (50 mM Tris-HCl pH 8, 150 mM NaCl, 0.4% Tween-20) for 1 h at room temperature. […] For immunodetection of GASP or GFP-tagged receptors directly from cell lysates, 10 µg of proteins were loaded on SDS gels and analyzed following the procedure described above. Finally, membranes were washed in TBS-Tween and detected by chemiluminescence (ECL prime, GE Healthcare). […]

B1: central domain of GASP-1: central portion of GASP-1 (AA 380 to 1073) that contains 19 GASP motif (protein)
chain: MTKEEAKTKARARAKQEARSEEEALIGTWFWATDESSMADEASIESSLQVEDESIIGSWFWTEEEASMGTGASSKSRPRTDGERIGDSLFGAREKTSMKTGAEATSESILAADDEQVIIGSWFWAGEEVNQEAEEETIFGSWFWVIDAASVESGVGVSCESRTRSEEEEVIGPWFWSGEQVDIEAGIGEEARPGAEEETIFGSWFWAENQTYMDCRAETSCDTMQGAEEEEPIIGSWFWTRVEACVEGDVNSKSSLEDKEEAMIPCFGAKEEVSMKHGTGVRCRFMAGAEETNNKSCFWAEKEPCMYPAGGGSWKSRPEEEEDIVNSWFWSRKYTKPEAIIGSWLWATEESNIDGTGEKAKLLTEEETIINSWFWKEDEAISEATDREESRPEAEEGDIIGSWFWAGEEDRLEPAAETREEDRLAAEKEGIVGSWFGAREETIRREAGSCSKSSPKAEEEEVIIGSWFWEEEASPEAVAGVGFESKPGTEEEEITVGSWFWPEEEASIQAGSQAVEEMESETEEETIFGSWFWDGKEVSEEAGPCCVSKPEDDEEMIVESWFWSRDKAIKETGTVATCESKPENEEGAIVGSWFEAEDEVDNRTDNGSNCGSRTLADEDEAIVGSWFWAGDEAHFESNPSPVFRAICRSTCSVEQEPDPSRRPQSWEEVTVQFKPGPWGRVGFPSISPFRFPKE
modifications: left off: GST, N-terminal, kept
notes: central portion of GASP-1 (AA 380 to 1073) that contains 19 GASP motif
[1]
  interaction with ADRB1 C-tail relative to full-length GASP-1: around 70%
[2]
  interaction with M1 C-tail relative to full-length GASP-1: around 70%
[3]
  interaction with ADRB2 C-tail: mandatory and sufficient for this interaction
[4]
  co-immunoprecipitation with ADRB2: co-immunoprecipitated
